Assay results from patent US20030027303A1.

Columns and labels:
Experiment in all cases: cell-based or functional assay
[1] = target: gut proteases of A. infusa (crude gut extract) (Agrotis infusa)
[2] = target: gut proteases of A. tasmaniae (crude gut extract) (Aphodius tasmaniae)
[3] = target: gut proteases of C. obliquana (crude gut extract) (Ctenopseustis obliquana)
[4] = target: gut proteases of C. rufifacies (crude gut extract) (Chrysomya rufifacies)
[5] = target: gut proteases of C. zealandica (crude gut extract) (Costelytra zealandica)
[6] = target: gut proteases of E. postvitiana (crude gut extract) (Epiphyas postvittana)
[7] = target: gut proteases of H. armigera (crude gut extract) (Helicoverpa armigera)
[8] = target: gut proteases of H. punctigera (crude gut extract) (Helicoverpa punctigera)
[9] = target: gut proteases of L. serricata (crude gut extract) (Lucilla sericata)
[10] = target: gut proteases of P. octo (crude gut extract) (Planotortrix octo)
[11] = target: gut proteases of P. opercullela (crude gut extract) (Phthorimaea opercullela)
[12] = target: gut proteases of S. litura (crude gut extract) (Spodoptera litura)
[13] = target: gut proteases of T. commodus (crude gut extract) (Teleogryllus commodus)
[14] = target: gut proteases of W. cervinata (crude gut extract) (Wiseana cervinata)
[15] = target: gut proteases of sugar cane grub (crude gut extract)

B1: C1, N. alata chymotrypsin inhibitor (peak 1 from HPLC) (peptide)
peptide: DRICTNCCAGTKGCKYFSDDGTFVCEGESDPRNPKACTLNCDPRIAYGVCPRS
casein hydrolysis (% control) [1]: 40.2 % control | casein hydrolysis (% control) [2]: 34.2 % control | casein hydrolysis (% control) [3]: 49.1 % control | casein hydrolysis (% control) [4]: 37.8 % control | casein hydrolysis (% control) [5]: 54.7 % control | casein hydrolysis (% control) [6]: 45.4 % control | casein hydrolysis (% control) [7]: 32.7 % control | casein hydrolysis (% control) [8]: 29.3 % control | casein hydrolysis (% control) [9]: 100 % control | casein hydrolysis (% control) [10]: 67.2 % control | casein hydrolysis (% control) [11]: 100 % control | casein hydrolysis (% control) [12]: 33.6 % control | casein hydrolysis (% control) [13]: 35 % control | casein hydrolysis (% control) [14]: 82.9 % control | casein hydrolysis (% control) [15]: 43.9 % control
